Reference: US20050266008A1 (Bristol-Myers Squibb, published 2005)

T1: IRTA1 expressed on transfected CHO cells (full-length transmembrane form with N-terminal epitope tag) (human, UniProt Q96PJ5 20-515)
T1 construct: also called CHO line expressing IRTA1
T1 sequence: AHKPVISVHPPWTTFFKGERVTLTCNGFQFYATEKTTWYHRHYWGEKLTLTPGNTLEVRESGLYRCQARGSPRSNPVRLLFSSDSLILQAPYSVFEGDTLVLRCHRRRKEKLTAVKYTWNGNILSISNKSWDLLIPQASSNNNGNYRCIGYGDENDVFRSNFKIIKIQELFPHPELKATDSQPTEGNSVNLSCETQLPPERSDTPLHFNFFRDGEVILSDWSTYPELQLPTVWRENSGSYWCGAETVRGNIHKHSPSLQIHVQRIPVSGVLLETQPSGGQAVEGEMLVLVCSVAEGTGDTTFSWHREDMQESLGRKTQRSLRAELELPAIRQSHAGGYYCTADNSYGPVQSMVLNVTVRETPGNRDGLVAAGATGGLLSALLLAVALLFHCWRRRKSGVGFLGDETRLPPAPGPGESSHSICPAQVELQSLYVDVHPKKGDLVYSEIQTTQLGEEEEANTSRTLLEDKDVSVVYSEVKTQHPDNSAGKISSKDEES

T2: IRTA4 expressed on transfected CHO cells (full-length transmembrane form with N-terminal epitope tag) (human, UniProt Q96LA5 20-508)
T2 construct: also called CHO line expressing IRTA4
T2 sequence: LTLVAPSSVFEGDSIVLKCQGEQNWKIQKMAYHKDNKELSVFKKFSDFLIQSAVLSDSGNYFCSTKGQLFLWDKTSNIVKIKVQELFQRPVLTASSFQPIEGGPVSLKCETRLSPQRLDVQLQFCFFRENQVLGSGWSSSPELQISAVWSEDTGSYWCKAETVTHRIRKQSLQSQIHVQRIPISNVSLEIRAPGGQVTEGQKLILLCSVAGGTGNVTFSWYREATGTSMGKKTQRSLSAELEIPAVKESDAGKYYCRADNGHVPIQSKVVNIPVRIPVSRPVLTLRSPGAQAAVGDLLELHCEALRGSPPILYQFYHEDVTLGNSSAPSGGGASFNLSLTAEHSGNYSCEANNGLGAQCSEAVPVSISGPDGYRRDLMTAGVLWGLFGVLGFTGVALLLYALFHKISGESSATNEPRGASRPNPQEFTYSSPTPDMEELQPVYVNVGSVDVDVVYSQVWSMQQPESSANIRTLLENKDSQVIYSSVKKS

T3: IRTA2 expressed on transfected CHO cells (full-length transmembrane form with N-terminal epitope tag) (human, UniProt Q96RD9 16-977)
T3 construct: also called CHO line expressing IRTA2
T3 chain: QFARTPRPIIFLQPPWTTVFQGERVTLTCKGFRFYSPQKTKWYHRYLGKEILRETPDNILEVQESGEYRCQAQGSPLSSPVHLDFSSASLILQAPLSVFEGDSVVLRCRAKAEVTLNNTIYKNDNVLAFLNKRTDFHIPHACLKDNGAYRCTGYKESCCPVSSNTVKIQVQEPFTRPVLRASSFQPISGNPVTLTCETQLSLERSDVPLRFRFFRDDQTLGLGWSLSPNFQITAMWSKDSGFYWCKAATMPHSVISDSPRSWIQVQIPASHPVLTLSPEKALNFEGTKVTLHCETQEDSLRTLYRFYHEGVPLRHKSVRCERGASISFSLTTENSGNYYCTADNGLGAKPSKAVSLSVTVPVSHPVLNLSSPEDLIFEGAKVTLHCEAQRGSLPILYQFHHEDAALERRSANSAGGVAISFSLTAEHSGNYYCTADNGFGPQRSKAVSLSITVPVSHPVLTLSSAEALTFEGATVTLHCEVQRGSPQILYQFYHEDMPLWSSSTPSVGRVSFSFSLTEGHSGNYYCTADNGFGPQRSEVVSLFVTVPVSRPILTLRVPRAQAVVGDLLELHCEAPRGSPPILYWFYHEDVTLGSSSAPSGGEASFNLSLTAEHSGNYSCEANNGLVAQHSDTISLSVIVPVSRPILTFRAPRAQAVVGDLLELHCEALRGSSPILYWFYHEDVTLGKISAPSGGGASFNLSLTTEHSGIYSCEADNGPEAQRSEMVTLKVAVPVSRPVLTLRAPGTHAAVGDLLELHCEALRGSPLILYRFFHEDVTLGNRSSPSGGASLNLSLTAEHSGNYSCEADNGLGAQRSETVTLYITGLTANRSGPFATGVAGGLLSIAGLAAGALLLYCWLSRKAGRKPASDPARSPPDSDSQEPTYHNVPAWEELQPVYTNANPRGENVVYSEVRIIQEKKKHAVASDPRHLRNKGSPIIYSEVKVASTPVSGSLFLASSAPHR

T4: IRTA5 protein as naturally expressed on human peripheral blood B lymphocytes and B cell tumor lines (human, UniProt Q96LA6 17-429)
T4 construct: Endogenous protein on untransfected human cells; also called IRTA-5 on CD19+ B cells, Daudi, Ramos, SU-DHL-4
T4 sequence: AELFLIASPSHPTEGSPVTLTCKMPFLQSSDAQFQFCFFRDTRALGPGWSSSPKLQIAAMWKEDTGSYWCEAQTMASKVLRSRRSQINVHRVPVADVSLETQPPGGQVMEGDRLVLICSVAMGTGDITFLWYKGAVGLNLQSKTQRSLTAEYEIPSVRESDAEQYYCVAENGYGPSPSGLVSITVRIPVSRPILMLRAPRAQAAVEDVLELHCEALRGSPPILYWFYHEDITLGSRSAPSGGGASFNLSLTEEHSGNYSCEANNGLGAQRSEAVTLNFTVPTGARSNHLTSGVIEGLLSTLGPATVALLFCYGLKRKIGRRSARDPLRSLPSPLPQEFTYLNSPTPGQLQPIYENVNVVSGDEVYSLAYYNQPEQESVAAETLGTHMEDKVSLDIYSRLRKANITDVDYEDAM

T5: IRTA5 expressed on transfected CHO cells (full-length transmembrane form with N-terminal epitope tag) (human, UniProt Q96LA6 17-429)
T5 construct: Neither the signal peptide limits nor the tag is stated; also called CHO line transfected with IRTA5; human IRTA-5
T5 sequence: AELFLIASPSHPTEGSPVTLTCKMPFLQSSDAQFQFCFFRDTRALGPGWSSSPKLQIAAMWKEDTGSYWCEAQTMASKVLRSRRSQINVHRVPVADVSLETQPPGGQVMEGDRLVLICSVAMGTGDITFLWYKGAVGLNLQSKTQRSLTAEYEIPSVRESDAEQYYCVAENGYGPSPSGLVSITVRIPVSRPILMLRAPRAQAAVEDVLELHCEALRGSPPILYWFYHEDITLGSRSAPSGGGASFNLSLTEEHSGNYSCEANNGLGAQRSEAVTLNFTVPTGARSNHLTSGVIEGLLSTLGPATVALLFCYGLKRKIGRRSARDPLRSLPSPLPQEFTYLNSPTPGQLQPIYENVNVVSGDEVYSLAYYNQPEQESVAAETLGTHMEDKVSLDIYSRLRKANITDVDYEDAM

T6: IRTA3 expressed on transfected CHO cells (full-length transmembrane form with N-terminal epitope tag) (human, UniProt Q96P31 18-734)
T6 construct: also called CHO line expressing IRTA3
T6 sequence: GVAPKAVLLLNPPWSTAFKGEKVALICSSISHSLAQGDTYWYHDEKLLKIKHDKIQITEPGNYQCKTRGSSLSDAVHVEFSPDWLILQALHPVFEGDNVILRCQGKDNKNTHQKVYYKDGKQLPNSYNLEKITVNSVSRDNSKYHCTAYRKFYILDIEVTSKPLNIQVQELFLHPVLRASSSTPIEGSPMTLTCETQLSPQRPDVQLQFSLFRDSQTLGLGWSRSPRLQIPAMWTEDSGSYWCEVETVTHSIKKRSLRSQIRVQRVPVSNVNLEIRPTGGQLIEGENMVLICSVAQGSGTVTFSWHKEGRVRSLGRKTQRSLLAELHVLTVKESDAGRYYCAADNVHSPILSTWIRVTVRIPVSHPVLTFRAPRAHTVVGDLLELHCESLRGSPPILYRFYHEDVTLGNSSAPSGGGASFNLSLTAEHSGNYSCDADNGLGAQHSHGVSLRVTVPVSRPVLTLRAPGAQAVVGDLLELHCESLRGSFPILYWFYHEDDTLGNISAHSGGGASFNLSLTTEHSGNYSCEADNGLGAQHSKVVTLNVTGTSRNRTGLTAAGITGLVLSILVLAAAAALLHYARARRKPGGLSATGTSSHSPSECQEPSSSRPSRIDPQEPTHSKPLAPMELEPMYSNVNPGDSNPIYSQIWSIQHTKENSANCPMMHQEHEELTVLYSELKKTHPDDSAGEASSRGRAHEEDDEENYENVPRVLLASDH


Assays:
[1] = molecular target: T1, IRTA1 expressed on transfected CHO …; assay: flow cytometry on IRTA1-CHO cells, FITC-labeled anti-human IgG
Excerpt: (§1) Chinese hamster ovary (CHO) cell lines that express one of each of the five IRTA proteins at the cell surface were developed and used to determine the specificity of the IRTA5 HuMAbs by flow cytometry. CHO cells were transfected with expression plasmids containing full length cDNA encoding transmembrane forms of IRTA1, IRTA2, IRTA3, IRTA4, or IRTA5. In addition, the transfected proteins contained an epitope tag at the N-terminus for detection by an antibody specific for the epitope. Binding of the seven anti-IRTA5 HuMAbs was assessed by incubating the transfected cells with each of the IRTA5 Abs at a concentration of 10 μg/ml. The cells were washed and binding was detected with a FITC-labeled anti-human IgG Ab. A murine anti-epitope tag Ab, followed by labeled anti-murine IgG, was used as the positive control. Non-specific human and murine Abs were used as negative controls. The results are depicted in FIG. 9. The IRTA5 HuMAbs bound to the CHO line transfected with IRTA5 but not to CHO lines expressing IRTA1, 2, or 4 as measured by the mean fluorescent intensity (MFI) of staining.

[2] = molecular target: T2, IRTA4 expressed on transfected CHO …; assay: flow cytometry on IRTA4-CHO cells, FITC-labeled anti-human IgG
Excerpt: as §1

[3] = molecular target: T3, IRTA2 expressed on transfected CHO …; assay: flow cytometry on IRTA2-CHO cells, FITC-labeled anti-human IgG
Excerpt: as §1

[4] = molecular target: T4, IRTA5 protein as naturally expressed on …; assay: two-colour flow cytometry on human PBMC: biotinylated antibody plus FITC-streptavidin (FL1) against PE anti-CD19 (FL2)
Description: CD19 is a cell surface marker that can be used to distinguish peripheral blood B lymphocytes. Human peripheral blood mononuclear cells were incubated with biotinylated 2G5, biotinylated 7G8, or an isotype control biotinylated human Ab. Cells were washed and were incubated with FITC-labeled streptavidin together with a phycoerythrin-labeled anti-CD19 antibody. Cells were washed and analyzed by flow cytometry. The results are depicted in FIG. 10A. Lymphocytes were gated as black “dots” and monocytes were gated as grey “dots”. Wavelengths were selected to screen for FITC (FL 1) and phycoerythrin (FL2) signaling. […] 2G5+ or 7G8+ cells (ordinate) were also predominantly CD19+, localizing to the double-positive, upper right quadrant.

[5] = molecular target: T7, purified recombinant human IRTA5 fusion protein (human); assay: Biacore SPR; IRTA5 fusion protein amine-coupled to CM5 chip, antibody flowed at 267 nM, 1:1 Langmuir fit
T7 construct: Amine-coupled to a CM5 chip in the Biacore kinetics; also called recombinant IRTA5 fusion protein
Description: Anti-IRTA5 antibodies were characterized for affinities and binding kinetics by Biacore analysis (Biacore AB, Uppsala, Sweden). Purified recombinant human IRTA5 fusion protein was covalently linked to a CM5 chip (carboxy methyl dextran coated chip) via primary amines, using standard amine coupling chemistry and kit provided by Biacore. Binding was measured by flowing the antibodies in HBS EP buffer (provided by BIAcore AB) at a concentration of 267 nM at a flow rate of 50 μl/min. The antigen-ssociation antibodies association kinetics was followed for 3 minutes and the dissociation kinetics was followed for 7 minutes. The association and dissociation curves were fit to a 1:1 Langmuir binding model using BlAevaluation software (Biacore AB). To minimize the effects of avidity in the estimation of the binding constants, only the initial segment of data coressponding to association and dissociation phases were used for fitting.

[6] = molecular target: T5, IRTA5 expressed on transfected CHO …; assay: flow cytometry on IRTA5-CHO cells, antibody at 10 µg/ml, FITC-labeled anti-human IgG; the log y axis has no label on the sheet (MFI per the text)
Excerpt: as §1

[7] = molecular target: T6, IRTA3 expressed on transfected CHO …; assay: flow cytometry on transfected CHO cells
Excerpt: as §1

[8] = molecular target: T4, IRTA5 protein as naturally expressed on …; assay: flow cytometry on Daudi and Ramos cells, PE anti-human secondary antibody
Description: The cell lines were incubated with each of the IRTA5 HuMAbs or a control human antibody, washed and detected by a phycoerythrin-labeled anti-human secondary antibody. […] The remaining 6 IRTA5 HuMAbs show a similar binding pattern (data not shown).

binding result [1] | binding result [2] | binding result [3] | binding result [4] | Kd [5] | koff [5] | kon [5] | binding result [6] | binding result [7] | binding result [8] | Binder
no binding (tested: 10 µg/ml) | no binding (tested: 10 µg/ml) | no binding (tested: 10 µg/ml) | binds | 0.028 nM | 4.3e-06 s⁻¹ | 152000 M⁻¹ s⁻¹ | binds | no binding |  | human monoclonal antibody 2G5 (antibody, V domains shown, Fully human IgG with kappa light chain from an HCo7 HuMab Mouse hybridoma; also called IRTA5 HuMAb 2G5; biotinylated 2G5) VH: QVQLVESGGGVVQPGRSLRLSCAASGFTFSDYGMHWVRQAPGKGLEWVAVIWYDGNNKYYADSVKGRFTISRDNSKNTLYLQMNSLRAEDTAVYYCARDWGRAFDIWGQGTMVTVSS VL: EIVLTQSPATLSLSPGERATLSCRASQSVSSYLAWYQQKPGQAPRLLIYDASNRATGIPARFSGSGSGTDFTLTISSLEPEDFALYYCQQLNNWPPYTFGQGTKLEIK
no binding (tested: 10 µg/ml) | no binding (tested: 10 µg/ml) | no binding (tested: 10 µg/ml) |  | 0.035 nM | 8.7e-06 s⁻¹ | 252000 M⁻¹ s⁻¹ | binds | no binding | binds | human monoclonal antibody 5A2 (antibody, V domains shown, Fully human IgG with kappa light chain from an HCo7 HuMab Mouse hybridoma) VH: QVQVVESGGGVVQPGRSLRLSCAASGFTFSNYGMHWVRQAPGKGLEWVAGIWYDGSNKYYADSVKGRFTISRDNSKNTLYLQMNSLRAEDTAVYYCARESPNFDYWGQGTLVTVSS VL: EIVLTQSPATLSLSPGERATLSCRASQSVSSYLAWYQQKPGQAPRLLIYDASNRATGIPARFSGSGSGTDFTLTISSLEPEDFAVYYCQQRNNWPPWTFGQGTKVEIK
no binding (tested: 10 µg/ml) | no binding (tested: 10 µg/ml) | no binding (tested: 10 µg/ml) | binds | 16.8 nM | 0.00121 s⁻¹ | 72000 M⁻¹ s⁻¹ | binds | no binding |  | human monoclonal antibody 7G8 (antibody, V domains shown, Fully human IgG with kappa light chain from an HCo7 HuMab Mouse hybridoma; also called IRTA5 HuMAb 7G8; biotinylated 7G8) VH: DVHLVQSGGGLVHPGGSLRLSCAGSGFTFSTYTMHWIRQAPGKDLEWVSAIGTGGGTDYADSVKGRFTISRDNAKNSLYLQMNSLRAEDMAVYYCAREVYWYFDLWGRGTLVTVSS VL: not shown
